pKd: −log10 of the molar value.
How the values were obtained:
Assay in all cases: Bio-Layer Interferometry (Precision Antibody)
[1] = target: p63:IA^g7 (recombinant peptide:MHCII monomer / tetramer) (mouse)
[2] = target: 2W:IA^b (recombinant peptide:MHCII monomer) (mouse) (UniProt P14434)
Eα52-68:IA^b (mouse) = Eα52-68:IA^b (mouse) (UniProt P14434)

Row | pKd [2] | Substance | also measured
1 | – | 10-2.16 MAb (anti-IA^g7) (antibody) | pKd [1]: 8.54
2 | 8.15 | AF6-120.1 (antibody) | –
3 | 8.72 | Y3P (antibody) | –
4 | – | Y-Ae (anti-Eα:IA^b) (antibody) | pKd (Eα52-68:IA^b (mouse)): 9.32

From US20230331850A1
